# According to article PMC8716136:
# Target: CaMKIIδC-GFP T287A (phosphoresistant) (R. norvegicus)
# Experiment: FRET or BRET
substance,measurement,value
unlabeled CaM (calmodulin) (from UniProt P0DP23 1-149) (natural protein),"donor fluorescence (FDD) after 5 uM unlabeled CaM, % of initial intensity",80%
